Test results published in article PMC5821868, “Human Semaphorin-4A drives Th2 responses by binding to receptor ILT-4” (Nature Communications, 2018).

Biological target: T1, recombinant SEMA4A-Fc (Sino Bio. Inc) (human, UniProt Q9H3S1 33-683)
T1 construct: Semaphorin-4A (SEMA4A), human; Used only in the SPR experiment, coated on the CM5 chip; Probably the extracellular domain (surmise); no catalogue number is printed; also called hSEMA4A; source: bought: Sino Bio; Inc
T1 sequence (looked up): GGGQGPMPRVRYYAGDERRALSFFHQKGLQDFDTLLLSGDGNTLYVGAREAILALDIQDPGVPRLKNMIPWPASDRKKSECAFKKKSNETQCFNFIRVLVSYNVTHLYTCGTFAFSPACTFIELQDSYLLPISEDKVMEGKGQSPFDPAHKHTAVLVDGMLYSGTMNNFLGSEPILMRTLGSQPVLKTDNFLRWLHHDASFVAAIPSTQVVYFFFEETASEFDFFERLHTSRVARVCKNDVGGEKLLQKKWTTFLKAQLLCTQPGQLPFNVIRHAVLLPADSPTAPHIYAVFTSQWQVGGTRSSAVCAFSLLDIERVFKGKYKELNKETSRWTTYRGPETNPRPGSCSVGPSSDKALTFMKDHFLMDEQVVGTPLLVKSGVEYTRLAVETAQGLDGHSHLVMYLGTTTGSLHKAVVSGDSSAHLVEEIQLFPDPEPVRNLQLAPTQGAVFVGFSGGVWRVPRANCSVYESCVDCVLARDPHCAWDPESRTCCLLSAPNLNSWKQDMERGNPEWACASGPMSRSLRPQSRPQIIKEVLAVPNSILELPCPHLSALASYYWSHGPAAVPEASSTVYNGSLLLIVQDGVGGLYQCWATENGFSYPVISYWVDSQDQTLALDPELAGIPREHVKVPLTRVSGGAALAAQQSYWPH
Test: SPR; SEMA4A-Fc (Sino Bio. Inc, 25 ug/ml) coated on a series S CM5 chip; ILT-4-Fc flowed at 10 to 0.625 uM in twofold dilutions; 25 °C; BIAcore T100
Details: both partners purified

Kd: 3.8 µM
B1: recombinant ILT-4-Fc fusion protein (R&D Systems) (Fc fusion, human, UniProt Q8N423 22-460, looked up)
chain: QTGTIPKPTLWAEPDSVITQGSPVTLSCQGSLEAQEYRLYREKKSASWITRIRPELVKNGQFHIPSITWEHTGRYGCQYYSRARWSELSDPLVLVMTGAYPKPTLSAQPSPVVTSGGRVTLQCESQVAFGGFILCKEGEDEHPQCLNSQPHARGSSRAIFSVGPVSPNRRWSHRCYGYDLNSPYVWSSPSDLLELLVPGVSKKPSLSVQPGPVMAPGESLTLQCVSDVGYDRFVLYKEGERDLRQLPGRQPQAGLSQANFTLGPVSRSYGGQYRCYGAHNLSSECSAPSDPLDILITGQIRGTPFISVQPGPTVASGENVTLLCQSWRQFHTFLLTKAGAADAPLRLRSIHEYPKYQAEFPMSPVTSAHAGTYRCYGSLNSDPYLLSHPSEPLELVVSGPSMGSSPPPTGPISTPGPEDQPLTPTGSDPQSGLGRHLGV
notes: Immunoglobulin-like transcript 4 (ILT-4, LILRB2), human; APC-labelled with the Zenon labeling kit for flow cytometry; Probably the extracellular domain of ILT-4 (surmise); no catalogue number is printed; also called APC-ILT-4-Fc; hILT-4; source: bought: R&D Systems
